According to US12319925B2, “Methods and compositions for genomic integration” (Myeloid Therapeutics, Inc., priority 2021, dated 2025):

Test system: THP-1 cells
Test: Integration and expression of HER2 binder-T2A-GFP cargo after LINE-1 plasmid electroporation
Format: cell-based
Conditions: 3.7 kb cargo, day 6 post transfection, FIG. 18B
Description: Next, THP-1 cells (a myeloid, monocytic cell line) were electroporated with a plasmid having LINE-1 sequences and a 3.7 kb cargo encoding a chimeric HER-2 binding receptor, and a split GFP (LINE-1 plasmid Her2-Cd3z-T2A-GFPintron) (FIG. 18A). The cargo is a chimeric receptor that comprises a HER2 binding extracellular domain, a CD3z transmembrane domain, and split GFP reporter. […] Moreover, unlike CRISPR dependent technologies such as Prime editing, retrotransposition can result in integration of large genetic cargo, and, these can be delivered as a single nucleic acid construct.

B1: LINE-1 plasmid Her2-Cd3z-T2A-GFPintron: LINE-1 plasmid with cargo encoding chimeric HER-2 binding receptor and split GFP (SEQ ID NO: 41) (nucleic acid)
DNA: CGGCCGCGGGGGGAGGAGCCAAGATGGCCGAATAGGAACAGCTCCGGTCTACAGCTCCCAGCGTGAGCGACGCAGAAGACGGTGATTTCTGCATTTCCATCTGAGGTACCGGGTTCATCTCACTAGGGAGTGCCAGACAGTGGGCGCAGGCCAGTGTGTGTGCGCACCGTGCGCGAGCCGAAGCAGGGCGAGGCATTGCCTCACCTGGGAAGCGCAAGGGGTCAGGGAGTTCCCTTTCCGAGTCAAAGAAAGGGGTGACGGACGCACCTGGAAAATCGGGTCACTCCCACCCGAATATTGCGCTTTTCAGACCGGCTTAAGAAACGGCGCACCACGAGACTATATCCCACACCTGGCTCGGAGGGTCCTACGCCCACGGAATCTCGCTGATTGCTAGCACAGCAGTCTGAGATCAAACTGCAAGGCGGCAACGAGGCTGGGGGAGGGGCGCCCGCCATTGCCCAGGCTTGCTTAGGTAAACAAAGCAGCAGGGAAGCTCGAACTGGGTGGAGCCCACCACAGCTCAAGGAGGCCTGCCTGCCTCTGTAGGCTCCACCTCTGGGGGCAGGGCACAGACAAACAAAAAGACAGCAGTAACCTCTGCAGACTTAAGTGTCCCTGTCTGACAGCTTTGAAGAGAGCAGTGGTTCTCCCAGCACGCAGCTGGAGATCTGAGAACGGGCAGACTGCCTCCTCAAGTGGGTCCCTGACCCCTGACCCCCGAGCAGCCTAACTGGGAGGCACCCCCCAGCAGGGGCACACTGACACCTCACACGGCAGGGTATTCCAACAGACCTGCAGCTGAGGGTCCTGTCTGTTAGAAGGAAAACTAACAACCAGAAAGGACATCTACACCGAAAACCCATCTGTACATCACCATCATCAAAGACCAAAAGTAGATAAAACCACAAAGATGGGGAAAAAACAGAACAGAAAAACTGGAAACTCTAAAACGCAGAGCGCCTCTCCTCCTCCAAAGGAACGCAGTTCCTCACCAGCAACAGAACAAAGCTGGATGGAGAATGATTTTGATGAGCTGAGAGAAGAAGGCTTCAGACGATCAAATTACTCTGAGCTACGGGAGGACATTCAAACCAAAGGCAAAGAAGTTGAAAACTTTGAAAAAAATTTAGAAGAATGTATAACTAGAATAACCAATACAGAGAAGTGCTTAAAGGAGCTGATGGAGCTGAAAACCAAGGCTCGAGAACTACGTGAAGAATGCAGAAGCCTCAGGAGCCGATGCGATCAACTGGAAGAAAGGGTATCAGCAATGGAAGATGAAATGAATGAAATGAAGCGAGAAGGGAAGTTTAGAGAAAAAAGAATAAAAAGAAATGAGCAAAGCCTCCAAGAAATATGGGACTATGTGAAAAGACCAAATCTACGTCTGATTGGTGTACCTGAAAG
genomic integration and expression of cargo: successfully integrated into the genome and showed prolonged expression
